# From patent US20240182536A1 (MURAL ONCOLOGY, published 2024)
# Where a chain is given by its changes, count along the chain named. Names and notes keep the numbering of the source. Where two headings read alike, the source gives them in different places.
# T1: IL-18 receptor (IL-18Rα and IL-18Rβ) (UniProt Q13478 19-541; O95256 20-599, limits assumed)
# T1 sequence (looked up) 1: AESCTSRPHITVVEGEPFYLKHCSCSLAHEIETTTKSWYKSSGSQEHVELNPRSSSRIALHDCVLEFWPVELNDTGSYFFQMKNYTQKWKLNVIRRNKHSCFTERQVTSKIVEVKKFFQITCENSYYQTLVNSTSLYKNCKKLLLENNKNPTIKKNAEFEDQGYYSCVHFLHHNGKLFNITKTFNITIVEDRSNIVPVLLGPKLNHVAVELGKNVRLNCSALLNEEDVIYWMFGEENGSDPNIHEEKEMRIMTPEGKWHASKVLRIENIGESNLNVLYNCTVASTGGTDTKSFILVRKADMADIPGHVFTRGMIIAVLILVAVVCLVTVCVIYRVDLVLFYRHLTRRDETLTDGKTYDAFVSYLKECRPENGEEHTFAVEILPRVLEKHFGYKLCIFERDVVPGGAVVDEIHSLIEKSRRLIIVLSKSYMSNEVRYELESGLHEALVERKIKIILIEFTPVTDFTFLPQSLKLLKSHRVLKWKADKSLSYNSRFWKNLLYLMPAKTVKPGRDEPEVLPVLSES
# T1 sequence (looked up) 2: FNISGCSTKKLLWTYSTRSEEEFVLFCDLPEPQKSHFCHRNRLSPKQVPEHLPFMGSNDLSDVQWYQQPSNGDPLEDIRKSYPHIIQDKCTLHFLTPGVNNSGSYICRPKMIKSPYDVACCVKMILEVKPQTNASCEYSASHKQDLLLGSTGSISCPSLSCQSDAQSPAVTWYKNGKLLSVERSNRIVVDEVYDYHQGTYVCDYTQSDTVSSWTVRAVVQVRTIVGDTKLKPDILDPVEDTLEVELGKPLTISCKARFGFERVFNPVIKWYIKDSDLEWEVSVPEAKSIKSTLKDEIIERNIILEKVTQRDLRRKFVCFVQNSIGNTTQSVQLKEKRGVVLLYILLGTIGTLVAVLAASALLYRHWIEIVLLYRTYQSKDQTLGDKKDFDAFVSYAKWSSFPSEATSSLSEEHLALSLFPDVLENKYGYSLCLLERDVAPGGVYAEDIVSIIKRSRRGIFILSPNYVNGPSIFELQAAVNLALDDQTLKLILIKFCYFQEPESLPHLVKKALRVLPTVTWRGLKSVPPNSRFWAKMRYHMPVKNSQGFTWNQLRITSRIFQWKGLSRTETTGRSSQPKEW
# T2: interleukin 18 binding protein (IL-18BP) (UniProt O95998 31-194)
# T2 sequence (looked up): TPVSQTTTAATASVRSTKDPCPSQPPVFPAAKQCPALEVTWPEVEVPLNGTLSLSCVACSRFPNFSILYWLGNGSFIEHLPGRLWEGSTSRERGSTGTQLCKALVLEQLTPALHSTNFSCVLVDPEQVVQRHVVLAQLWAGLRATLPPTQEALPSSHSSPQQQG
# T3: mouse IL-18 binding protein (mouse, UniProt Q9Z0M9 29-193)
# T3 construct: also called Mouse IL18BP; Mouse IL-18BP
# T3 sequence (looked up): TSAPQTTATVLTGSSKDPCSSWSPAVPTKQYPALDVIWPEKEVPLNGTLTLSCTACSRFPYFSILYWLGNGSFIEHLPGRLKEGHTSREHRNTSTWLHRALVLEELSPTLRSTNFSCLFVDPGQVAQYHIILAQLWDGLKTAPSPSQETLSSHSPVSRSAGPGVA
# T4: mouse IL-18 receptor alpha (mouse, UniProt Q61098 20-326, limits assumed)
# T4 construct: also called Mouse IL18Ra; mouse IL-18R alpha
# T4 sequence (looked up): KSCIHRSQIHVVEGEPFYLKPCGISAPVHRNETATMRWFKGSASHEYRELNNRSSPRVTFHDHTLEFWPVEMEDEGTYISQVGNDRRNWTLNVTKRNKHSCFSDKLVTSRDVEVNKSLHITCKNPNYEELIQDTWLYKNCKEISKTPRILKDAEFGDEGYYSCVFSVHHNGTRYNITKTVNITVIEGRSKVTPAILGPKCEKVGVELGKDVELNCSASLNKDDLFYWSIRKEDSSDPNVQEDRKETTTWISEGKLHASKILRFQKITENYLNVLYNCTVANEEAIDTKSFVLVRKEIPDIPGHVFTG
# B1: IL-18 variant G3D, E6G, K53G, D54A, T63S, N91Y, R104Q (ligand)
# chain: YFDKLGSKLSVIRNLNDQVLFIDQGNRPLFEDMTDSDMRDNAPRTIFIISMYGASQPRGMAVSISVKSEKISTLSSENKIISFKEMNPPDYIKDTKSDIIFFQQSVPGHDNKMQFESSSYEGYFLASEKERDLFKLILKKEDELGDRSIMFTVQNED
# B2: IL-18 variant G3P, E6H, D54A, S55P, Q56K, T63S, N91M (ligand)
# chain: B1 chain with D3P, G6H, G53K, S55P, Q56K, Y91M, Q104R
# B3: IL-18 variant G3I, E6D, D54A, S55F, N91Y, R104H (ligand)
# chain: B1 chain with D3I, G6D, G53K, S55F, S63T, Q104H
# B4: IL-18 variant G3Q, E6H, K53T, D54S, S55Y, N91Y, R104K (ligand)
# chain: B1 chain with D3Q, G6H, G53T, A54S, S55Y, S63T, Q104K
# B5: IL-18 variant G3P, E6K, D54Y, S55P, T63S, N91S, R104Q, Q154R (ligand)
# chain: B1 chain with D3P, G6K, G53K, A54Y, S55P, Y91S, Q154R
# B6: IL-18 variant G3L, E6Y, D54T, T63S, N91Y, R104Q (ligand)
# chain: B1 chain with D3L, G6Y, G53K, A54T
# B7: IL-18 variant G3P, E6K, D54Y, S55P, Q56H, T63S, N91S, R104Q (ligand)
# chain: B1 chain with D3P, G6K, G53K, A54Y, S55P, Q56H, Y91S
# B8: IL-18 variant G3P, E6H, N91L (ligand)
# chain: B1 chain with D3P, G6H, G53K, A54D, S63T, Y91L, Q104R
# B9: IL-18 variant G3P, E6V, K53A, D54W, S55P, T63S, N91L, R104K (ligand)
# chain: B1 chain with D3P, G6V, G53A, A54W, S55P, Y91L, Q104K
# B10: IL-18 variant G3Q, E6G, D54N, S55H, T63V, N91M, R104T (ligand)
# chain: B1 chain with D3Q, G53K, A54N, S55H, S63V, Y91M, Q104T
# B11: IL-18 variant G3P, E6K, D54R, S55P, T63A, N91V (ligand)
# chain: B1 chain with D3P, G6K, G53K, A54R, S55P, S63A, Y91V, Q104R
# B12: IL-18 variant G3L, E6S, D54T, T63S, N91Y, R104Q (ligand)
# chain: B1 chain with D3L, G6S, G53K, A54T
# B13: IL-18 variant G3P, E6K, D54Y, S55P, T63S, N91S, R104Q (ligand)
# chain: B1 chain with D3P, G6K, G53K, A54Y, S55P, Y91S
# B14: IL-18 variant G3Q, E6Q, K53T, D54W, S55F, N91Y (ligand)
# chain: B1 chain with D3Q, G6Q, G53T, A54W, S55F, S63T, Q104R
# B15: Comparator 5 on monoFc scaffold (Fc fusion, not shown: small tags and cut ends)
# chain: HFGRLHCTTAVIRNINDQVLFVDKRQPVFEDMTDIDQSASEPQTRLIIYAYGDSRARGKAVTLSVKDSKMSTLSCKNKIISFEEMDPPENIDDIQSDLIFFQKRVPGHNKMEFESSLYEGHFLACQKEDDAFKLILKKKDENGDKSVMFTLTNLHQSNGGPSVFLFPPKPKDTLMISRTPEVTCVVVDVSHEDPEVKFNWYVDGVEVHNAKTKPREEQYNSTYRVVSVLTVLHQDWLNGKEYKCKVSNKALPAPIEKTISKAKGQPREPQVYTLPPSREEMTKNQVNLTCLVKGFYPSDIAVEWESNGQPENNYKTTPPVLDSDGSFFLNSTLTVDKSRWQQGNVFSCSVMHEALHNHYTQKSLSLS
# B16: mouse IL-18 G3V/L59K on monoFc scaffold (Fc fusion, not shown: small tags and cut ends)
# chain: B15 chain with H1N, G3V, C7S, A50M, G52K, R55E, A56V, C75S, C125S
# B17: mouse IL-18 G3V/L59M on monoFc scaffold (Fc fusion, not shown: small tags and cut ends)
# chain: B15 chain with H1N, G3V, C7S, A50M, G52K, R55E, A56V, K59M, C75S, C125S
# B18: mouse IL-18 G3V/L59R on monoFc scaffold (Fc fusion, not shown: small tags and cut ends)
# chain: B15 chain with H1N, G3V, C7S, A50M, G52K, R55E, A56V, K59R, C75S, C125S
# B19: mouse IL-18 G3V/H6K/L59K on monoFc scaffold (Fc fusion, not shown: small tags and cut ends)
# chain: B15 chain with H1N, G3V, H6K, C7S, A50M, G52K, R55E, A56V, C75S, C125S
# B20: mouse IL-18 G3T/L59K on monoFc scaffold (Fc fusion, not shown: small tags and cut ends)
# chain: B15 chain with H1N, G3T, C7S, A50M, G52K, R55E, A56V, C75S, C125S
# B21: mouse IL-18 G3T/H6K/L59K on monoFc scaffold (Fc fusion, not shown: small tags and cut ends)
# chain: B15 chain with H1N, G3T, H6K, C7S, A50M, G52K, R55E, A56V, C75S, C125S
# What was measured:
# [1] = target: T1, IL-18 receptor (IL-18Rα and IL-18Rβ); test: cell-based or functional assay
# [2] = target: T2, interleukin 18 binding protein (IL-18BP); test: cell-based or functional assay
# [3] = target: T1, IL-18 receptor (IL-18Rα and IL-18Rβ); test: cell-based or functional assay; remark: listed apart in the source
# [4] = target: T2, interleukin 18 binding protein (IL-18BP); test: cell-based or functional assay; remark: listed apart in the source
# [5] = target: T3, mouse IL-18 binding protein; test: Octet BLI, monoFc scaffold
# Protocol: (§1) Octet 96red instrument was used to determine affinities of IL18 proteins to BP or receptors. 5-10 ug/ml analyte proteins were used for loading on Sartorius tips (AHC or SA). […] 120-180 s loading, 200 s association and 800 s dissociation were used for kinetics. 3-7 data points were used to calculate affinities.
# (§2) Several mouse variants were next tested for binding affinity to mouse IL-18R alpha and mouse IL-18BP.
# [6] = target: T4, mouse IL-18 receptor alpha; test: Octet BLI, monoFc scaffold
# Protocol: as §1, §2
Binder,"EC50 (pM) - BP, HEK-blue re-screening [1]","EC50 (pM) + 300 nM BP, HEK-blue re-screening [2]","Ratio (HEK-blue EC50, + 300 nM BP against - BP) [2]",Kd [6],other results
B1,2.62 pM,3.11 pM,1.2,–,–
B2,5.4 pM,8.23 pM,1.5,–,–
B3,–,–,–,–,"EC50 (pM) - BP, HEK-blue re-screening [3]: 0.45 pM; EC50 (pM) + 100 nM BP, HEK-blue re-screening [4]: 3.41 pM; Ratio (HEK-blue EC50, + 100 nM BP against - BP) [4]: 7.6"
B4,2.63 pM,4.69 pM,1.8,–,–
B5,1.09 pM,2.58 pM,2.4,–,–
B6,0.03 pM,0.37 pM,12.3,–,–
B7,1.58 pM,2.99 pM,1.9,–,–
B8,3.21 pM,5.34 pM,1.7,–,–
B9,8.21 pM,15.8 pM,1.9,–,–
B10,–,–,–,–,"EC50 (pM) - BP, HEK-blue re-screening [3]: 0.99 pM; EC50 (pM) + 100 nM BP, HEK-blue re-screening [4]: 2.66 pM; Ratio (HEK-blue EC50, + 100 nM BP against - BP) [4]: 2.7"
B11,9.07 pM,10.1 pM,1.1,–,–
B12,0.02 pM,0.51 pM,25.5,–,–
B13,0.73 pM,1.18 pM,1.6,–,–
B14,2.36 pM,2.54 pM,1.1,–,–
B15,–,–,–,1.27 nM,binding result [5]: no binding
B16,–,–,–,14.5 nM,binding result [5]: no binding
B17,–,–,–,17.4 nM,Kd [5]: 2.47 nM
B18,–,–,–,51.5 nM,binding result [5]: no binding
B19,–,–,–,24.2 nM,binding result [5]: no binding
B20,–,–,–,12.3 nM,binding result [5]: no binding
B21,–,–,–,12.8 nM,binding result [5]: no binding
